Columns and labels:
[1] = target: T1, human folate receptor beta (FOLR2), extracellular domain, recombinant (human, UniProt P14207 17-228, limits assumed); assay: ELISA, coated recombinant protein, HA-tagged VHH in bacterial extract
T1 construct: extracellular domain; Bought protein; also called human FOLR2
Experimental: (§1) The day before, 0.1 µg recombinant protein at a concentration of 1 µg/mL in 100 mM NaHCO3, pH 8.2 was coated in a 96-well ELISA plate (Nunc MaxiSorp). Per VHH clone also a blank coated well was foreseen (only buffer). The wells were overcoated with protein-free T20 (PBS) blocking buffer (Pierce). After washing with PBS, pH7.4, 0.05% Tween, VHH-containing bacterial extract was added to every well. Binding of HA-tagged VHHs was detected by using mouse anti-HA.11 epitope tag (clone 16B12, Biolegend) as the primary Ab and goat anti-mouse IgG (whole molecule) alkaline phosphatase conjugate (Sigma-Aldrich) as the secondary Ab, with thorough washing with PBS, pH 7.4, 0.05% Tween in between. Signals were developed using phosphatase substrate (Sigma-Aldrich) in AP blot buffer (100 mM NaCl, 50 mM MgCl2, 100 mM Tris, pH 9.5). The absorbance was determined at 405 nm using an absorbance microplate reader (Molecular Devices). Per clone the ratio was determined between the absorbance in the antigen-coated well versus the well without antigen.

[2] = target: T2, human folate receptor gamma (FOLR3), recombinant (human, UniProt P41439 23-245, limits assumed); assay: as above
T2 construct: extracellular domain; Bought protein; also called human FOLR3
Experimental: as §1

[3] = target: T3, murine FOLR1, extracellular domain, recombinant (murine, UniProt P35846 25-232); assay: as above
T3 construct: extracellular domain; Bought protein; also called mouse FOLR1
Experimental: as §1

[4] = target: human FOLR1 recombinant protein (extracellular domain of human folate receptor alpha) (human) (UniProt P15328); assay: ELISA; coated recombinant protein, HA-tagged VHH in bacterial extract, anti-HA detection; A405 antigen well / blank well
[5] = target: T1, human folate receptor beta (FOLR2), …; assay: as above
Experimental: as §1

[6] = target: T2, human folate receptor gamma (FOLR3), …; assay: as above
Experimental: as §1

[7] = target: T3, murine FOLR1, extracellular domain, …; assay: as above
Experimental: as §1

[8] = target: T4, human FOLR1 expressed on SKOV-3 ovarian carcinoma cells (human, UniProt P15328 25-234); assay: saturation binding of 131I-labelled untagged VHH on SKOV-3 cells
T4 construct: Naturally expressed receptor on SKOV-3 cells; also called human FOLR1pos SKOV-3 cancer cells; human FOLR1-expressing cell line SKOV-3

[9] = target: T4, human FOLR1 expressed on SKOV-3 ovarian …; assay: cellular retention on SKOV-3 cells: 10 nM 131I-VHH 1 h at 4 C, then up to 24 h at 37 C; membrane-bound plus internalized fraction
Experimental: The in vitro cellular retention of the different His₆- and untagged ¹³¹I-labeled VHHs was assessed on the same cancer cells. In this particular case, human FOLR1^pos SKOV-3 cancer cells were incubated with 10 nM ¹³¹I-labelled VHHs for 1h at 4° C., after which the unbound fraction was collected. A 100-fold excess of the corresponding unlabeled VHH to assess non-specific binding. Next, the cells were incubated with fresh medium up to 24 h at 37° C., after which the dissociated fraction was collected. Afterwards, the cells were washed with 0.05 M glycine pH 2.8 to collect the membrane-bound fraction. Finally, cells were solubilized with 1 M NaOH at room temperature to collect the internalized fraction. The sum of the membrane-bound and internalized fractions corresponds to the total cell-associated fraction.

[10] = target: T5, human FOLR1 recombinant protein (extracellular domain of human folate receptor alpha) (human, UniProt P15328 25-233); assay: SPR (Biacore T200), human FOLR1 immobilized on CM5, His6-tagged VHH as analyte, 1:1 fit
T5 construct: Bought recombinant protein (Sino Biological); also called hFOLR1; FR-alpha
Experimental: The kinetic parameters of antigen binding by purified VHHs were determined via surface plasmon resonance with a Biacore T200 instrument (GE Healthcare). The human FOLR1 recombinant protein (Sino Biological) was immobilized in 10 mM sodium acetate, pH 5.5 on a CM5 chip (GE Healthcare) via amine coupling chemistry to 500 RU. His₆-tagged VHHs were analyzed in a twofold serial dilution in HBS (125 nM-0.488 nM for VHHs A4 and A5; 10 nM-0.039 nM for VHHs A1, A2 and A3) with an analyte flow rate of 30 µl/min. The association phase took 180 s (A4-A5) or 450 s (A1-A3) and the dissociation phase 600 s (A4-A5) or 900 s (A1-A3). Regeneration was done by a single injection of 50 mM glycine-HCl, pH 2.5, 2 M MgCl₂ for 30 s at 30 µl/min, followed by 120 s stabilization. Binding curves were fitted using a ‘1:1 (antigen:analyte)’ binding model in Biacore T200 evaluation software.

[11] = target: T5, human FOLR1 recombinant protein …; assay: SPR dual injection on immobilized human FOLR1, 250 nM; competitor (1st VHH, saturating) A1; by the legend the value is of the 2nd VHH
Experimental: (§2) Competitive binding characteristics of His₆-tagged VHHs were determined via surface plasmon resonance with a Biacore T200 instrument (GE Healthcare). Immobilization of human FOLR1 recombinant protein (Sino Biological) and regeneration were performed as described below for kinetic measurements.
(§3) Table 8: Side-by-side comparison of His₆-tagged VHHs A1, A2, A3, A4, A5 for binding to human FOLR1 to identify competitive binding characteristics. Binding was measured in surface plasmon resonance with immobilized human FOLR1 recombinant protein as the ligand. After saturation of the ligand with VHH 1 an equimolar mixture of VHH 1 and VHH 2 was injected. Percentages express the loss in response level of VHH 2, relative to the response when VHH 2 was injected alone.

[12] = target: T5, human FOLR1 recombinant protein …; assay: SPR dual injection on immobilized human FOLR1, 250 nM; competitor (1st VHH, saturating) A2; by the legend the value is of the 2nd VHH
Experimental: as §2, §3

[13] = target: T5, human FOLR1 recombinant protein …; assay: SPR dual injection on immobilized human FOLR1, 250 nM; competitor (1st VHH, saturating) A3; by the legend the value is of the 2nd VHH
Experimental: as §2, §3

[14] = target: T5, human FOLR1 recombinant protein …; assay: SPR dual injection on immobilized human FOLR1, 250 nM; competitor (1st VHH, saturating) A4; by the legend the value is of the 2nd VHH
Experimental: as §2, §3

[15] = target: T5, human FOLR1 recombinant protein …; assay: SPR (Biacore T200), single cycle kinetics, His6-tagged VHH immobilized on CM5, human FOLR1 as analyte, 1:1 fit
Experimental: The kinetic parameters of antigen binding for purified VHHs A1, A2 and A3 were determined via surface plasmon resonance with a Biacore T200 instrument (GE Healthcare) using single cycle kinetics mode. While example 4d provides a first and preferred way of assessing the kinetic parameters of antigen binding for VHHs using surface plasmon resonance, this example provides an alternative setup for using surface plasmon resonance to assess the kinetic parameters of antigen binding, inverting the analyte and immobilized ligand. His₆-tagged VHH A1, A2 or A3 was immobilized in 10 mM sodium acetate, pH 5.5 on a CM5 chip (GE Healthcare) via amine coupling chemistry to 160 RU. The human FOLR1 recombinant protein (Sino Biological) was analyzed in a threefold serial dilution in HBS (38.5 nM-0.47 nM) with an analyte flow rate of 30 µl/min. The association phase took 180 s for every concentration and the dissociation phase 900 s. Regeneration was done by a single injection of 50 mM glycine-HCl, pH 2.5, 2 M MgCl2 for 30 s at 30 µl/min, followed by 120 s stabilization. Binding curves were fitted using a ‘1:1 (antigen:analyte)’ binding model in Biacore T200 evaluation software.

[16] = target: T5, human FOLR1 recombinant protein …; assay: SPR dual injection on immobilized human FOLR1, 250 nM; competitor (1st VHH, saturating) A5; by the legend the value is of the 2nd VHH
Experimental: as §2, §3

T1 sequence (P14207 17-228 limits assumed): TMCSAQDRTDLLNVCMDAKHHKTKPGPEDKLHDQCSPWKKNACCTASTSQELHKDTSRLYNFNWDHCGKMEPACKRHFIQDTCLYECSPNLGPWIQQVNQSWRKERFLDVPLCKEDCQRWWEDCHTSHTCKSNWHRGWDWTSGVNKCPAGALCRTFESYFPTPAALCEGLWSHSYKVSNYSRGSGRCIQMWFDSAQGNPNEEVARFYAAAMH
T2 sequence (P41439 23-245 limits assumed): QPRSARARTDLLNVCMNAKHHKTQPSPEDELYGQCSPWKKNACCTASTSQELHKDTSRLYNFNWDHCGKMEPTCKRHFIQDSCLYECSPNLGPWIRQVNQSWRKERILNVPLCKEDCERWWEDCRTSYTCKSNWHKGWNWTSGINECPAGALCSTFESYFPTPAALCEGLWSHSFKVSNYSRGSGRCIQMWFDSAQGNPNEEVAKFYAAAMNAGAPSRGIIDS
T3 sequence (P35846 25-232 limits assumed): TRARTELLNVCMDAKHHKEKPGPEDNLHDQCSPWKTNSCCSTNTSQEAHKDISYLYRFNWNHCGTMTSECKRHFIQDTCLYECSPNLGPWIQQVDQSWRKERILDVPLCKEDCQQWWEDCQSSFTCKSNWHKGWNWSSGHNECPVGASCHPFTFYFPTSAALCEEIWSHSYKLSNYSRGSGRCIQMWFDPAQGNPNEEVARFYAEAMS
T5 sequence (P15328 25-233): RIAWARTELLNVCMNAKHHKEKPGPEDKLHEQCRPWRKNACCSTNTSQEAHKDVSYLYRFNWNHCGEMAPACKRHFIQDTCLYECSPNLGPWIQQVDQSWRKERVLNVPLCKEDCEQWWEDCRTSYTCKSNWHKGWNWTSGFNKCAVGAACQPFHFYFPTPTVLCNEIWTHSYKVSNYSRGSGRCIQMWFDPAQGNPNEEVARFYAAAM
human FOLR1 recombinant protein (extracellular domain of human folate receptor alpha) (human), sequence (P15328 25-233): as above
T4 sequence (P15328 25-234 limits assumed): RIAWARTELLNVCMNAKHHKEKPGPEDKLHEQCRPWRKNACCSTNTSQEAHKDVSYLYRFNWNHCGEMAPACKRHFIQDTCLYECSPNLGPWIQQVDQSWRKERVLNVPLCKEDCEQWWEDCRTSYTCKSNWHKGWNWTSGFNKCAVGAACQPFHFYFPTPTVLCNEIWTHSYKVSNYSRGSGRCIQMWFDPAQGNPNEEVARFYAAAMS

Binder | binding result [1] | binding result [2] | binding result [3] | signal-to-background ratio [4] | signal-to-background ratio [5] | signal-to-background ratio [6] | signal-to-background ratio [7] | Kd [10] | koff [10] | kon [10] | loss in response level of VHH 2 relative to VHH 2 injected alone [12] | loss in response level of VHH 2 relative to VHH 2 injected alone [13] | other results
HA-tagged variant of VHH A3 (VHH, Used as VHH-containing bacterial (periplasmic) extract in ELISA; also called A3 HA-tag) VHH: QVQLQESGGGLVQAGGSLRLSCGVSGNMFSMNLMGWYRQPPGKERDWVAVITKDGSTNYADSVKGRFTISRDNAKNTVSLQMNSLKPEDTAVYYCNVQDGSGWIRAWGWDWGQGTQVTVSS | no binding | no binding | no binding | > 20 | ~1 | ~1 | ~1 | – | – | – | – | – | –
131I-labeled untagged VHH A3 (VHH, [131I]SGMIB conjugated to lysine side-chain amine groups) VHH: DVQLVESGGGLVQAGGSLRLSCGVSGNMFSMNLMGWYRQPPGKERDWVAVITKDGSTNYADSVKGRFTISRDNAKNTVSLQMNSLKPEDTAVYYCNVQDGSGWIRAWGWDWGQGTQVTVSS | – | – | – | – | – | – | – | – | – | – | – | – | EC50 [8]: 5.8 nM; cell-associated fraction of initial bound activity after 24 h [9]: 15%
HA-tagged variant of VHH A5 (VHH, Used as VHH-containing bacterial (periplasmic) extract in ELISA; also called A5 HA-tag) VHH: QVQLQESGGGLVQAGGSLRLSCGVSGNIFSMNLMGWYRQPPGKEREWVALITKDGSTNYEDSVKGRFTISRDNAKNTVSLQMNSLKPEDTAVYYCNAQDGSGWIRAWGWDWGQGTQVTVSS | no binding | no binding | no binding | > 20 | ~1 | ~1 | ~1 | – | – | – | – | – | –
His6-tagged variant of VHH A5 (VHH, Purified, unlabelled; also called A5 His6-tag) VHH: DVQLVESGGGLVQAGGSLRLSCGVSGNIFSMNLMGWYRQPPGKEREWVALITKDGSTNYEDSVKGRFTISRDNAKNTVSLQMNSLKPEDTAVYYCNAQDGSGWIRAWGWDWGQGTQVTVSS | – | – | – | – | – | – | – | 14 nM | 0.018 s⁻¹ | 1.3e+06 M⁻¹ s⁻¹ | -99% | -100% | loss in response level of VHH 2 relative to VHH 2 injected alone [11]: -96%; loss in response level of VHH 2 relative to VHH 2 injected alone [14]: -98%
His6-tagged variant of VHH A1 (VHH, Purified, unlabelled; also called A1 His6-tag) VHH: DVQLVESGGGLVQPGGSLRLSCAASESIFSRNHMSWYRQAPGKQRELAAIITSDGNTNYPDSVKGRFTISRDNAKNTVYLQMNSLKPEDTAVYYCNTFGRSVAGFYDYWGQGTQVTVSS | – | – | – | – | – | – | – | 0.04 nM | 0.00014 s⁻¹ | 3.6e+06 M⁻¹ s⁻¹ | -98% | -100% | Kd [15]: 0.44 nM; koff [15]: 0.00019 s⁻¹; kon [15]: 430000 M⁻¹ s⁻¹; loss in response level of VHH 2 relative to VHH 2 injected alone [14]: -98%; loss in response level of VHH 2 relative to VHH 2 injected alone [16]: -91%
HA-tagged variant of VHH A4 (VHH, Used as VHH-containing bacterial (periplasmic) extract in ELISA; also called A4 HA-tag) VHH: QVQLQESGGGLARAGGSLRLSCAASGRAFSSTYAMGWFRQAPGKEREFVADINWSEGSPMYIDSVKDRFTISRDNARNSLYLQMNSLKSEDTAVYYCAARRFGQGYEYWGQGTQVTVSS | no binding | no binding | no binding | > 20 | ~1 | ~1 | ~1 | – | – | – | – | – | –
His6-tagged variant of VHH A4 (VHH, Purified, unlabelled; also called A4 His6-tag) VHH: DVQLVESGGGLARAGGSLRLSCAASGRAFSSTYAMGWFRQAPGKEREFVADINWSEGSPMYIDSVKDRFTISRDNARNSLYLQMNSLKSEDTAVYYCAARRFGQGYEYWGQGTQVTVSS | – | – | – | – | – | – | – | 4.3 nM | 0.0057 s⁻¹ | 1.3e+06 M⁻¹ s⁻¹ | -99% | -100% | loss in response level of VHH 2 relative to VHH 2 injected alone [11]: -97%; loss in response level of VHH 2 relative to VHH 2 injected alone [16]: -91%

From patent publication US20230340111A1 (published 2023)
